First the molecules themselves.
B1: CCL16_HUMAN (ligand)
chain: QPKVPEWVNTPSTCCLKYYEKVLPRRLVVGYRKALNCHLPAIIFVTKRNREVCTNPNDDWVQEYIKDPNLPLLPTRNLSTVKIITAKNGQPQLLNSQ
B2: CCL7_HUMAN (ligand)
chain: not shown
B3: CCL4_HUMAN (ligand)
chain: APMGSDPPTACCFSYTARKLPRNFVVDYYETSSLCSQPAVVFQTKRSKQVCADPSESWVQEYVYDLELN
B4: CCL3_HUMAN (ligand)
chain: SLAADTPTACCFSYTSRQIPQNFIADYFETSSQCSKPGVIFLTKRSRQVCADPSEEWVQKYVSDLELSA
B5: CCL15_HUMAN (ligand)
chain: QFTNDAETELMMSKLPLENPVVLNSFHFAADCCTSYISQSIPCSLMKSYFETSSECSKPGVIFLTKKGRQVCAKPSGPGVQDCMKKLKPYSI

Our source for the Kd values is patent US20240034757A1 (OXFORD UNIVERSITY INNOVATION, published 2024).

By Kd is commonly meant the constant that tells how readily two partners part at equilibrium. A higher Kd goes with a looser complex.

Positions count from the first letter of the chain named.

The first experiment concerns the target T1, P467_RHIPU (Rhipicephalus pulchellus, UniProt L7M8Z8 22-127).
T1 sequence: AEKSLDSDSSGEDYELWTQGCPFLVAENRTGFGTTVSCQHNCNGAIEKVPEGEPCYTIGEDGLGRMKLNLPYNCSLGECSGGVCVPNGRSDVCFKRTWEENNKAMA
Put plainly: BLI.
B1 registered a Kd of 14.1 nM. That is a double-digit nanomolar value.

The molecule B2 showed a Kd of 2.15 nM.

Consider B3, for which binding was put at a Kd of 13.6 nM. This Kd is about 6.3-fold higher than that of the molecule before.

In the case of B4, binding was put at a Kd of 0.363 nM.

The next experiment concerns the target T2, P546_AMBCA (Amblyomma cajennense, UniProt A0A023FBW7 22-118).
T2 sequence: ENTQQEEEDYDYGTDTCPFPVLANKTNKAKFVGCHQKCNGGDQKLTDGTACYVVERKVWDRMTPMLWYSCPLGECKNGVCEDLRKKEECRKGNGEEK
The experiment can be described thus: BLI. In general terms: In BLI a coated tip is dipped into the sample, and binding shifts an interference pattern.
The molecule B2 showed a dissociation constant Kd of 90 nM. In other words, the double-digit nanomolar range.

For the molecule B3, binding was put at a Kd of 27 nM.

In the case of B4, binding was characterised by a dissociation constant (Kd) of 15 nM.

The target of another experiment is T3, P1180_AMBTR (Amblyomma triste, UniProt A0A023G6B6 26-116).
T3 sequence: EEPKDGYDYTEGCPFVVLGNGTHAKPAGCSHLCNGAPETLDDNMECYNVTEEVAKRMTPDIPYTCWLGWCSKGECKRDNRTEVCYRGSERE
Put plainly: BLI.
With B2, the Kd was 98 nM.

Molecule B3 had a dissociation constant Kd of 66 nM.

In turn, B4 showed an equilibrium dissociation constant (Kd) of 1.1 nM. Compared with the last molecule, the Kd is about 60-fold lower.

The target in another experiment is T4, P1181_AMBMA (Amblyomma maculatum, UniProt G3MIX6 26-115).
T4 sequence: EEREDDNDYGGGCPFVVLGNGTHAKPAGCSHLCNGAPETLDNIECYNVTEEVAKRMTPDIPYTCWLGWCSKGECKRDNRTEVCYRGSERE
The experiment can be described thus: BLI.
For B2, the affinity, expressed as Kd, was 120 nM.

With B3, the dissociation constant Kd stood at 53 nM.

With B4, the equilibrium dissociation constant (Kd) stood at 2.2 nM. Compared with the last molecule, the Kd is about 24-fold lower.

In the next experiment the target is T5, P1182_AMBMA (Amblyomma maculatum, UniProt G3MJ83 27-115).
T5 sequence: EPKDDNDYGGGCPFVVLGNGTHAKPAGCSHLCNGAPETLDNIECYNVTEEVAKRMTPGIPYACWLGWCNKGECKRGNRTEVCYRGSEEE
The experiment can be described thus: BLI.
For the molecule B3, binding was characterised by a dissociation constant (Kd) of 63 nM. This counts as double-digit nanomolar.

Turning to B4, the affinity, expressed as Kd, was 5.4 nM.

The next experiment addresses T6, P1183_AMBTR (Amblyomma triste, UniProt A0A023G9N9 26-115).
T6 sequence: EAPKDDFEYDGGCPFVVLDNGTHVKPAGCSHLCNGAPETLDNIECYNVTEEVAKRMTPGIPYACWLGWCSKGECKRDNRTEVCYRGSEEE
The experiment can be described thus: BLI.
In the case of B2, the Kd came to 5.4 nM. In other words, the single-digit nanomolar range.

Consider B3, for which the affinity, expressed as Kd, was 78 nM.

The target of a further experiment is T7, P1243_AMBAM (Amblyomma americanum, UniProt A0A0C9S461 26-123).
T7 sequence: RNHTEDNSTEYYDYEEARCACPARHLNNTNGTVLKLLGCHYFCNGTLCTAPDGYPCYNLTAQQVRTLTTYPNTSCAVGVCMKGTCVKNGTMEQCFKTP
The experiment can be described thus: BLI.
In the case of B1, the Kd came out at 0.926 nM. In other words, the sub-nanomolar range.

The molecule B5 registered a Kd of 9.61 nM.

For the molecule B2, binding was characterised by a dissociation constant (Kd) of 8.66 nM.

Turning to B3, the Kd came out at 15.3 nM.

For B4, binding was put at a Kd of 5.3 nM.

The target of the next experiment is T8, P672_RHIPU (Rhipicephalus pulchellus, UniProt L7MC74 22-125).
T8 sequence: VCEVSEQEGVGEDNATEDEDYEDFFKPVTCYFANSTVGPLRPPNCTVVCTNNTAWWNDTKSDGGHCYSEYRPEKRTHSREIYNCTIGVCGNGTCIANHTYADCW
Put plainly: BLI.
Turning to B1, binding was put at a Kd of 3.3 nM.

As to B5, the Kd amounted to 32 nM.

B2 showed a Kd of 16 nM.

Turning to B4, binding was put at a Kd of 2.6 nM. Compared with the last molecule, the Kd is about 6.2-fold lower.

The target of another experiment is T9, P974_AMBCA (Amblyomma cajennense, UniProt A0A023FDY8 22-118).
T9 sequence: T2 sequence with E8Q, S69E, E88D
The experiment can be described thus: BLI.
As for B2, the affinity, expressed as Kd, was 41.2 nM.

The molecule B3 displayed a dissociation constant Kd of 30.2 nM.

Turning to B4, the affinity, expressed as Kd, was 7.97 nM.

In the next experiment the target is T10, P983_AMBCA (Amblyomma cajennense, UniProt A0A023FFB5 22-119).
T10 sequence: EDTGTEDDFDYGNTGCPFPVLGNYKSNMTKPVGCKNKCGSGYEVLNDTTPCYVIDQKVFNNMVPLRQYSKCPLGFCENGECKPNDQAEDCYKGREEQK
Put plainly: BLI.
Regarding B2, binding was put at a Kd of 32 nM.

In the case of B3, the Kd turned out to be 8 nM.

In turn, B4 displayed a Kd of 3.5 nM.

For another experiment, the target named is T11, P985_AMBPA (Amblyomma parvum, UniProt A0A023FT45 25-132).
T11 sequence: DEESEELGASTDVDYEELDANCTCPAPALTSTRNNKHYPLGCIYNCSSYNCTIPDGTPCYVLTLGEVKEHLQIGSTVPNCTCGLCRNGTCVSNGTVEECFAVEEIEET
Put plainly: BLI.
In the case of B1, the equilibrium dissociation constant (Kd) came out at 45 nM.

In turn, B2 yielded a Kd of 61 nM.

Molecule B3 yielded a dissociation constant Kd of 46 nM.

Regarding B4, the Kd turned out to be 8.9 nM. This Kd is about 5.2-fold lower than that of the molecule before.

Another experiment deals with T12, P991_AMBCA (Amblyomma cajennense, UniProt A0A023FFD0 29-136).
T12 sequence: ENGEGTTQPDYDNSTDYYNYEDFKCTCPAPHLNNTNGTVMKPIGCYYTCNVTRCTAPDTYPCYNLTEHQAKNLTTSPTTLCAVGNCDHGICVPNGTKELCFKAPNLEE
The experiment can be described thus: BLI.
B1: the Kd was 1.28 nM.

B5 had a Kd of 159 nM.

B2 registered a dissociation constant Kd of 0.514 nM.

As for B3, the dissociation constant Kd was 5.82 nM.

B4 yielded an equilibrium dissociation constant (Kd) of 1.08 nM.

A further experiment concerns the target T7, P1243_AMBAM. The experiment can be described thus: BLI. This is another data set of the same source.
As to B1, the affinity, expressed as Kd, was 0.925 nM.

B5: the Kd stood at 9.61 nM.

Molecule B2 returned a dissociation constant Kd of 8.66 nM.

The molecule B3 gave a Kd of 15.3 nM.

Molecule B4 yielded a dissociation constant Kd of 5.3 nM.
